Assay results reported in patent US8067376B2, “Pharmaceutical compositions for transdermal delivery” (Forhumantech Co., Ltd., priority 2004, dated 2011).
Entries after “also recorded” stand apart in the source; their conditions may differ. Ends that are not written are not given here.

How the values were obtained:
[1] = system: HeCaT cell line; test: Cell proliferation-inhibitory effect by WST-1 assay; format: cell-based; details: 0.2, 1.5, 4.4, 13.3 and 40 μM, after 2 days
Source text: In this Example, the cell proliferation-inhibitory effect of PTD-MTX was observed by WST-1 assay (Roche Biochemical) in vitro.
To analyze the cell proliferation-inhibitory effect of PTD-MTX, a HeCaT cell line (obtained from the Department of Dermatology, College of Medicine, Chungnam National University, Korea) was used to analyze cell death. For this purpose, […] were inoculated into DMEM medium (10% FCS, antibiotics (GIBCO)) on a 96-well plate and cultured overnight. To the culture medium, MTX alone, PTD-MTX and PTD-ACA-MTX conjugates prepared in Example 1 were added with concentrations of 0.2, 1.5, 4.4, 13.3 and 40 μM respectively. After 2 days, the inhibition of proliferation of the cells was analyzed by the WST-1 assay.
In the WST-1 assay, tetrazolium salt is present in the respiratory chain of mitochondria and cleaved into a formazan dye by succinate-tetrazolium-reductase having activity only for viable cells, and if the number of viable cells increases, the entire activity of mitochondria dehydrogenase in a sample will increase. Since this increase in enzymatic activity induces an increase in the production of formazan dye, the formazan dye will show a linear correlation with the number of metabolically active cells in medium. The absorbance of the dye solution was measured with an ELISA reader to quantify the formazan dye produced by the metabolically active cells so as to observe cell proliferation ability and cell viability.

[2] = system: Sprague Dawley rats; test: Toxicity test by single subcutaneous administration to rats; format: in vivo, rat
Protocol: Toxicity by the single subcutaneous administration of PTD-ACA-MTX prepared in Example 1 was examined. Male and female Sprague Dawley rats (Samtako) were divided into an excipient control group administered with sterilized water for injection, and test groups administered with the inventive conjugate in amounts of 5, 50 and 500 mg/kg. Each of the animal groups consisted of 10 animals (five males and five females) and observed for mortality for 2 weeks, general symptoms, bodyweight change, and autopsy findings. All the test methods were performed according to toxicity test standards provided by the Korea Food and Drug Administration, and the test results are as follows.

[3] = system: DBA/1J mice; test: Arthritis animal model (rheumatoid arthritis induced by II-type collagen); format: in vivo, mouse
Protocol: For in vivo verification of the pharmacological effects of the PTD-ACA-MTX conjugate, DBA/1J mice (obtained from Samtako) were injected with e II-type collagen (obtained from Sigma) to induce rheumatoid arthritis. The mice were divided into a group for intraperitoneal (I.P.) injection of the PTD-ACA-MTX conjugate prepared in Example 1, a group for transdermal administration of the PTD-ACA-MTX conjugate prepared in Example 1, and a group for intraperitoneal (I.P.) injection of MTX alone. For the groups for intraperitoneal (I.P.) injection, MTX was injected in a dosage of 0.3 mg/kg for 4 weeks, and for the group for transdermal administration, a cream-type composition consisting of 5 wt %, based on the weight of the composition, of ethanol, 15 wt % of liquid paraffin, 40 wt % of Vaseline, 0.1 wt % of the PTD-ACA-MTX conjugate, 10 wt % of glycerin and 30 wt % of polyethylene glycol was prepared and then applied on rheumatoid arthritis-induced sites four times weekly. After treatment with the drugs, the arthritis index was monitored one time each week, and after 4 weeks, the animals were sacrificed and the IL-4, IL-6, TNF-α and arthritis factor levels in the blood were measured (see FIGS. 7, 8 and 9; results obtained using PTD of SEQ ID NO: 2 are not shown in the drawings). In FIGS. 7, 8 and 9, N: normal mice; CT: mice having rheumatoid arthritis induced by injection of collagen; M1: the group injected intraperitoneally with MTX alone; M2: the group injected intraperitoneally with PTD-ACA-MTX; and M3: the group for which the ointment preparation containing the PTD-ACA-MTX conjugate was administered transdermally.

[4] = system: New Zealand White rabbits; test: Skin irritation test in rabbits; format: in vivo, rabbit; details: healthy and scratch skin
Protocol: The skin irritability of the inventive conjugate was examined. The inventive conjugate was applied to the healthy skin and scratch skin of New Zealand White rabbits, which were then evaluated comparatively with the healthy skin and scratch skin to which the inventive conjugate had not been applied.

[5] = system: beagle dogs; test: Toxicity test by single subcutaneous administration to beagle dogs; format: in vivo, dog
Protocol: Toxicity caused by single subcutaneous administration of the inventive conjugate was examined. Male and female beagle dogs were administered subcutaneously with the inventive conjugate in each of amounts of 4, 20 and 100 mg/kg. Each of the animal groups consisted of four animals (2 males and 2 females) and observed for mortality for 2 weeks, general symptoms, bodyweight change, and autopsy findings. All the test methods were performed according to toxicity test standards provided by the Korea Food and Drug Administration, and the test results are as follows.

[6] = Prior enzyme test of PTD-MTX conjugate versus MTX alone; format: biochemical; details: prior enzyme test results
[7] = 500 mg/kg, male and female animals

Compound: CN(Cc1cnc2nc(N)nc(N)c2n1)c1ccc(C(=O)N[C@@H](CCC(=O)O)C(=O)O)cc1 [MTX alone, methotrexate, reference compound]
- cell proliferation-inhibitory effect (rank order) [1]: followed by the MTX-PTD conjugate and the MTX alone in that order; also recorded: MTX alone <PTD-MTX<PTD-ACA-MTX

Compound: PTD-ACA-MTX (YARVRRRGPRR; also: aminocaproic acid linker, methotrexate conjugate, position not given here)
- autopsy findings ([2]; 500 mg/kg, female animals): splenomegaly was observed
- autopsy findings at the administration site [2, 7]: red fluid retention and incrustation
- general symptoms [2, 7]: congestion was observed starting from one day after the administration; also recorded: incrustation was observed starting from 2 days after the administration
- general symptoms ([2]; 500 mg/kg, male animals): systemic edema was observed
- bodyweight change ([2]; 500 mg/kg, male animals, 3, 7 and 14 days after administration): inhibition of an increase in bodyweight
- mortality (animals killed by the test substance) ([2]; 5, 50 and 500 mg/kg single s.c., 2 weeks): not observed
- general symptoms ([2]; 4 days to 6 days after administration, group not clearly stated (500 mg/kg context)): Diarrhea and soft feces were sporadically observed
- minimum lethal dose (MLD) ([2]; single subcutaneous administration, rats): more than 500 mg/kg
- inflammatory cells which have penetrated inflammatory sites (tissue photographs) ([3]; after treatment, H&E and M-T staining): greatly decreased
- amount of inflammation-mediating cytokine TNF-α ([3]; blood, after 4 weeks of treatment): greatly decreased
- pharmacological effect in arthritis animal model ([3]; group M3, transdermal ointment, compared with M2 (I.P. MTX-ACA-PTD) and M1 (I.P. MTX alone)): substantially the same effect
- skin irritability classification [4]: non-irritating substance
- skin irritation index [4]: zero
- cell proliferation-inhibitory effect (rank order) [1]: MTX alone <PTD-MTX<PTD-ACA-MTX
- cell proliferation-inhibitory effect (rank order) ([1]; listed as MTX-ACA-PTD conjugate): highest inhibitory effect
- bodyweight change ([5]; 100 mg/kg, male and female animals, 3 days after administration): temporary inhibition of an increase in bodyweight
- general symptoms ([5]; 100 mg/kg, males, anorexia 2 to 4 days, diarrhea 3 days after administration, listed as inventive conjugate): anorexia was observed; also recorded: diarrhea was observed
- general symptoms ([5]; 100 mg/kg, one male and female, starting from 1 hour after administration): reduction in spontaneous motility was observed
- autopsy findings ([5]; 4, 20 and 100 mg/kg single s.c.): abnormal findings were not observed
- mortality (animals killed by the test substance) ([5]; 4, 20 and 100 mg/kg single s.c., 2 weeks): No animal killed by the test substance was observed
- general symptoms ([5]; groups with more than 20 mg/kg, males and females, 1 hour to 6 hours after administration): eyelid edema was observed
- general symptoms ([5]; one male of 20 mg/kg group and one female of 100 mg/kg group): edema and a reduction in spontaneous motility were continued up to 2 days after administration
- minimum lethal dose ([5]; single subcutaneous administration, beagle dogs, both males and females): over 100 mg/kg

Compound: PTD-MTX (YARVRRRGPRR-NH2; not fully specified (N-terminus); also: methotrexate conjugate)
- cell proliferation-inhibitory effect (rank order) [1]: MTX alone <PTD-MTX<PTD-ACA-MTX
- effect in enzyme test compared to MTX alone [6]: low effects compared to MTX alone
